assay: yeast display, Sf9 membrane polyspecificity reagent, FACS + sequencing; frameworks hold sequencing errors
In short: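 Using colony PCR, genes from sorted yeast display clones were amplified, then sequenced on MiSeq at 2 × 250 and filtered by CDR length. The clones had been stained with 10% biotinylated, detergent-solubilized Sf9 membrane reagent for 1 hour at 4 °C and sorted by FACS into low and high (top ~1%) gates on anti-HA and streptavidin fluorescence. Polyreactivity labels come from the gate of origin.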

| Sequence | polyreactivity (PSR sort gate) |
| --- | --- |
| QVQLVESGGGLVQAGGSLRLSCAASGIFSYYAMGWYRQAPGKERELVATISRRGSSTYYADSVKGRFTISRDNAKNTVYLQMNSLKPEDTAVYYCNADIGWGRFSQSFDYWGQGTQVTVSS | low polyreactivity |
| QVQLVESGGGLVQAGGSLRLSCAASGIIFAGNAMGWYRQAPGKEREFVAAISYRGGTTYYADSVKGRFTISRDNAKNTVYLQMNSLKPEDTAVYYCAADPRSKGFYYGYDYWGQGTQGTVSS | high polyreactivity |
| QVQLVESGGGLVQAGGSLRLSCAASGIIFAGNAMGWYRQAPGKERELVAAISSGTTTNYADSVKGRFTISRDNAKNTVYLQMNRLKPEDTAVYYCAADDFPYKSDYWGQGTHVTVSS | low polyreactivity |
| QVQLVESGGGLVQAGGSLRLSCAASGIIFAHYAMGWYRQAPGKERELVAAISSSGATTYYADSVKGRFTISRDNAKNTVYFQMNSLKPEDTAVYYCNTETYHVRRLFDYWGQGTQVTVSS | low polyreactivity |
| QVQLVESGGGLVQAGGSLRLSCAASGIIFALYAMGWYRQAPGKERELVATITYSGGSTYYADSVKGRFTISRDNAKNTVYLQMNSLKPEDSAVYYCNRDQWPWESGYAYNYWGQGTQVTVSS | low polyreactivity |
| QVQLVESGGGLVQAGGSLRLSCAASGIIFATNGMGWYRQAPGKEREFVASSTNGGSTNYADSVKGRFTISRDNAKNTVYLQMNSLKPEDTAVYYCAAAASDDYDYPTEYEYWGQGTQVTVSS | high polyreactivity |
| QVQLVESGGGLVQAGGSLRLSCAASGIIFAYYAMGWYRQAPGKERELVAAISWNSGYTYYADSVKGRFTISRDNAKNTVYLQMNSLKPEDSAVYYCAAESYYSYSYYRPYEYYYWGQGTQLTVSS | high polyreactivity |
| QVQLVESGGGLVQAGGSLRLSCAASGIIFAYYAMGWYRQAPGKERELVASITNTGSTYYADSVKGRFTISRDNAKNTVYLQMNSLKPEDTAVYFCNAVLSSNTKWRYPGDYLGQGTQVTVSS | low polyreactivity |
| QVQLVESGGGLVQAGGSLRLSCAASGIIFDDNAMGWYRQAPGKERELVAAISSGSTTNYADSVKGRFTISRDNEKNTVYLQMTSLKPEDTAVYYCAAVDGLAFDYWGQGTQVTVSS | low polyreactivity |
| QVQLVESGGGLVQAGGSLRLSCAASGIIFDDYAMGWYRQAPGKERELVAAISVSGGSTYYADSVKGRFTISRDNAKNTVYLQMNSLKPEDTAVYYCAARLIVGRFLRYDYWGQGTQVSVSS | high polyreactivity |
| QVQLVESGGGLVQAGGSLRLSCAASGIIFDEYAMGWYRQAPGKERELVAAISSRGTNTYYADSVKGRFTISRDHAKNTVYLQMNSLKPEDTAVYYCAARRPPVTRHFGYWGQGTQVTVSS | high polyreactivity |
| QVQLVESGGGLVQAGGSLRLSCAASGIIFDGNAMGWYRQAPGKERELVASITSDSSTNYADSVKGRFTISRDNAKNTVYLQMNSLKPEDTAVYYCAADHWIAPRRDYWGQGTQVTVSS | low polyreactivity |
| QVQLVESGGGLVQAGGSLRLSCAASGIIFDLNAMGWYRQAPGKERELVAAITSGGSTYYADSVKGRFTISRDNAKNTVYLQMNSLKPEDTAVYYCAADYQAGDKLYDYWGQGTQVTLSS | low polyreactivity |
| QVQLVESGGGLVQAGGSLRLSCAASGIIFDNYAMGWYRQAPGKERELVAAISPGGSTYYADSVKGRFTISRDNAKNTVYLQMNSLKPEDTAVYYCNARKYTWYSSRFIRFDYWGQGTQVTVSS | high polyreactivity |
| QVQLVESGGGLVQAGGSLRLSCAASGIIFDRYAKGWYRQAPGKERELVAAITYGGGSTYYADSVKGRFTISRDNAKNTVYLQMNSLKPEDTSVYYCAAVPRSGMYYWGQGTQVTVSS | high polyreactivity |
| QVQLVESGGGLVQAGGSLRLSCAASGIIFDRYAMGWYRQAPGKEREFVAAISRRGGSTYYADSVKGRFTISRDNAKNTVYLQMNSLKPEDTAVYYCAKEIRYYSSVSESDYWGQGTQVTVSS | high polyreactivity |

| Sequence | polyreactivity (PSR sort gate) |
| --- | --- |
| QVQLVESGGGLVQAGGSLRLSCAASGIIFDRYTMGWYRQAPGKERELVAAIDDSDDSTYYADSVKGRFTISRDNAKNTVYLQMNSLKPEDTAVYYCAAEYTWFEYIDFGYWGQGTQVTVSS | high polyreactivity |
| QVQLVESGGGLVQAGGSLRLSCAASGIIFDSYAMGWYRPAPGKERELVAAITSDSGRTYYADSVKGRFTISRDNAKNTVYLQMNSLKPEDTAVYYCAKRWDCPYDYWGQGTQVTVSS | low polyreactivity |
| QVQLVESGGGLVQAGGSLRLSCAASGIIFDWYAMGWYRQAPGKERELVAAISDSGDTTYYADSVKGRFTISRDNAKNTVYLQMNSLKPEDTAVYYCAAVSYQYYDLDYWGQGTQVTVSS | high polyreactivity |
| QVQLVESGGGLVQAGGSLRLSCAASGIIFDYNAMGWYRPAPGKERELVAAITSTDNTNYADSVKGRFTISRDNAKNTVYLQMNCLKPEDTAVYYCNTDYWLSVVYAMDYWGQGTQVTVSS | low polyreactivity |
| QVQLVESGGGLVQAGGSLRLSCAASGIIFDYYAMGWYRQAPGKERELVAAINRNGGTTYYADSVKGRFTISRDNAKNSVYLQMNSLKPEDTAVYYCAAVDFGWITYYYWGQGTQVTVAS | high polyreactivity |
| QVQLVESGGGLVQAGGSLRLSCAASGIIFDYYAMGWYRQAPGKERELVAAISKRGGSTYYADSVKGRFTISRDNAKNTVYLQMNSLKPEDTAVYYCAAEYSKRWWYYYWGQGTQVTVSS | high polyreactivity |
| QVQLVESGGGLVQAGGSLRLSCAASGIIFDYYAMGWYRQAPGKERELVASNSWSGGGTYYADSVKGRFTISRDNAKNTVYFQMNRLNPEDTAVYYCAADGSTVNAPRWSDPYDYWGQGTQVTVSS | low polyreactivity |
| QVQLVESGGGLVQAGGSLRLSCAASGIIFDYYTMGWYRQAPGKARELVAGITRSGGRTYYADSVKGRFTISRDNAKNTVYLQMNSLKPEETAGYYCAAVQRRTYVKYESWGQGTQVTVSS | high polyreactivity |
| QVQLVESGGGLVQAGGSLRLSCAASGIIFERNAMGWYRQAPGKERELVAAISSNGGSTYYADSVKGRFTISRDNAKNTVYLQMNSLKPEDTAVYYCAAQGVYAGSRYYYWGQGTQVTVSS | high polyreactivity |
| QVQLVESGGGLVQAGGSLRLSCAASGIIFFFYAMGWYRQEPGKERELVAAISDEGVSTDYADSVKGRFTISRDNAKNTVYLQMNSLKPEDTAVYYCAAKTERVYPWFSFGYWGQGTQVTVSS | low polyreactivity |
| QVQLVESGGGLVQAGGSLRLSCAASGIIFFRYAMGWYRQAPGKERELVAGISGSGGSTYYADSVKGRFTISRDNAKNTVYLQMNSLKPEDTAVYYCAKQWKSNIYYQGGYWGQGTQVTVSS | high polyreactivity |
| QVQLVESGGGLVQAGGSLRLSCAASGIIFFSNAMGWYRQAPAQEMELVAAITGGSSTNYADSVKGRFTISRDNAKNTVYLQMNSLKPEDTAVYYCNAPTKSTPRSEPIPYYEFDYWGQGTQVTVSS | low polyreactivity |
| QVQLVESGGGLVQAGGSLRLSCAASGIIFFYNAMGWYRQAPGKERELVAAISSDGSTYYADSVKGRFTISRDNAKNTVYLQMNSLKPEDTAVYYCNAGSLRYGPYNHWGQGTQVTVSS | low polyreactivity |
| QVQLVESGGGLVQAGGSLRLSCAASGIIFGDNAMGWYRQAPGKERELVAAITIGGTSTYYADSVKGRFTISRDNAKNTVYLQMNSLKPEDTAVYYCAKTILYDCDYWGQGTQVTVSS | low polyreactivity |
| QVQLVESGGGLVQAGGSLRLSCAASGIIFGENAMGWYRQAPGKERELVAAINSVGSTYYADSVKGRFTISRDNAKNTVYLQMNSLKPEDTAVYYCNARLAKVRVKDDYWGQGTQVTVSS | low polyreactivity |
| QVQLVESGGGLVQAGGSLRLSCAASGIIFGENAMGWYRQAPGKERELVAAITESGGSTYYADSVKGRFTISRDNAKNTVYLQMNSLKPEDTAVYYCNALPFRYGKRRGYWGQGTQVTVSS | low polyreactivity |

— the nanobody polyreactivity screen of Harvey et al. (2022)
